# Measurements reported in US20240036027A1 (UNIVERSITY OF MASSACHUSETTS, published 2024).
# B1: OmpG^L3/L6-SA1.1 (designed binder)
# chain: MEERNDWHFNIGAMYEIENVEGYGEDMDGLAEPSVYFNAANGPWRIALAYYQEGPVDYSAGKRGTWFDRPELEVHYQFLENDDFSFGLTGGFRNYGYHYVDEPGLEICQNVCYYGGKDTANMQRWKIAPDWDVKLTDDLRFNGWLSMYKFANDLNTTGYADTRVETETGLQYTFNETVALRVNYYLERGFNMDDSRNNGEFSTQEIRAYLPLTLGNHSVTPYTRIGLDRWSNWDWQGLEICQNVCYYGDDIEREGHDFNRVGLFYGYDFQNGLSVSLEYAFEWQDHDEGDSDKFHYAGVGVNYSF
# notes: SA1.1 motif in both loops 3 and 6; also called avidity sensor; avidity nanopore sensor
# B2: OmpG^L6-SA1.1 (designed binder)
# chain: MEERNDWHFNIGAMYEIENVEGYGEDMDGLAEPSVYFNAANGPWRIALAYYQEGPVDYSAGKRGTWFDRPELEVHYQFLENDDFSFGLTGGFRNYGYHYVDEPGKDTANMQRWKIAPDWDVKLTDDLRFNGWLSMYKFANDLNTTGYADTRVETETGLQYTFNETVALRVNYYLERGFNMDDSRNNGEFSTQEIRAYLPLTLGNHSVTPYTRIGLDRWSNWDWQGLEICQNVCYYGDDIEREGHDFNRVGLFYGYDFQNGLSVSLEYAFEWQDHDEGDSDKFHYAGVGVNYSF
# notes: also called Loop 6 SA1.1
# B3: OmpG^L3-FLAG/L6-SA1.1 (designed binder)
# chain: MEERNDWHFNIGAMYEIENVEGYGEDMDGLAEPSVYFNAANGPWRIALAYYQEGPVDYSAGKRGTWFDRPELEVHYQFLENDDFSFGLTGGFRNYGYHYVDEPGDYKDDDDKGGKDTANMQRWKIAPDWDVKLTDDLRFNGWLSMYKFANDLNTTGYADTRVETETGLQYTFNETVALRVNYYLERGFNMDDSRNNGEFSTQEIRAYLPLTLGNHSVTPYTRIGLDRWSNWDWQGLEICQNVCYYGDDIEREGHDFNRVGLFYGYDFQNGLSVSLEYAFEWQDHDEGDSDKFHYAGVGVNYSF
# notes: Possible glycines beside SA1.1 (primers) not built in; also called multiplex sensor; SA1.1 multiplex sensor
# Assays:
# [1] = target: T1, Streptavidin (unconjugated, EMD Millipore) (UniProt P22629 37-163); assay: single-channel current recording, discrete binding events
# [2] = target: T1, Streptavidin (unconjugated, EMD …); assay: single-channel current recording
# [3] = target: T1, Streptavidin (unconjugated, EMD …); assay: single-channel current recording, KOff of the lower Ires state taking transient returns to basal conductance as dissociation
# [4] = target: T1, Streptavidin (unconjugated, EMD …); assay: single-channel current recording, apparent Kd=kOff/kOn, N=3, n=903
# [5] = target: T1, Streptavidin (unconjugated, EMD …); assay: single-channel current recording, kOff=1/tauOff
# [6] = target: T1, Streptavidin (unconjugated, EMD …); assay: single-channel current recording, kOn=1/(C*tauOn)
# [7] = target: T1, Streptavidin (unconjugated, EMD …); assay: single-channel current recording, streptavidin alone, N=12, n=2846
# [8] = target: T1, Streptavidin (unconjugated, EMD …); assay: single-channel current recording, calculated from kOff and kOn
# [9] = target: T1, Streptavidin (unconjugated, EMD …); assay: single-channel current recording, streptavidin alone, concentration dependence
# T1 sequence (P22629 37-163 limits assumed): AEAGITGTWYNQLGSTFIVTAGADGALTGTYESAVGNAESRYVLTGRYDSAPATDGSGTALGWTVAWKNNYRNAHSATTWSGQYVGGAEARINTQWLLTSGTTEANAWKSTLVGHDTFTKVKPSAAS
binder,measurement,setting,value
B1,koff,[1],0.0103 s⁻¹
same,kon,[1],326000 M⁻¹ s⁻¹
same,fold change of KOff against OmpG^L6-SA1.1,[2],~76 fold
same,fold change of KOn against OmpG^L6-SA1.1,[2],~4.7 fold
same,koff,[3],0.701 s⁻¹
B2,Kd,[4],8.83 µM
same,koff,[5],0.783 s⁻¹
same,kon,[6],69100 M⁻¹ s⁻¹
B3,koff,[7],0.552 s⁻¹
same,Kd,[8],7.54 µM
same,kon,[9],73200 M⁻¹ s⁻¹
